Test results as given in publication PMC3098278.

How the values were obtained:
Assay in all cases: filter binding
[1] = test system: 80S ribosome, L11 H109E ((yeast)); settings: poly(U), tRNAPhe in P-site, soluble factors; aminoacylated (Phe); Nitrocellulose filter binding, 30 C, 35 min (A-site) or 40 min (P-site), poly(U)-primed ribosomes; buffer, salt and pH not given; errors are SD
[2] = test system: 80S ribosome, wild-type L11 ((yeast)); settings: poly(U), tRNAPhe in P-site, soluble factors; aminoacylated (Phe); Nitrocellulose filter binding, 30 C, 35 min (A-site) or 40 min (P-site), poly(U)-primed ribosomes; buffer, salt and pH not given; errors are SD
[3] = test system: 80S ribosome, L11 114-116R (Saccharomyces cerevisiae? (yeast)); settings: aminoacylated (N-acetyl-Phe); Nitrocellulose filter binding, 30 C, 35 min (A-site) or 40 min (P-site), poly(U)-primed ribosomes; buffer, salt and pH not given; errors are SD
[4] = test system: 80S ribosome, L11 H109E (Saccharomyces cerevisiae? (yeast)); settings: aminoacylated (N-acetyl-Phe); Nitrocellulose filter binding, 30 C, 35 min (A-site) or 40 min (P-site), poly(U)-primed ribosomes; buffer, salt and pH not given; errors are SD
[5] = test system: 80S ribosome, L11 H109F (Saccharomyces cerevisiae? (yeast)); settings: aminoacylated (N-acetyl-Phe); Nitrocellulose filter binding, 30 C, 35 min (A-site) or 40 min (P-site), poly(U)-primed ribosomes; buffer, salt and pH not given; errors are SD
[6] = test system: 80S ribosome, wild-type L11 (Saccharomyces cerevisiae? (yeast)); settings: aminoacylated (N-acetyl-Phe); Nitrocellulose filter binding, 30 C, 35 min (A-site) or 40 min (P-site), poly(U)-primed ribosomes; buffer, salt and pH not given; errors are SD
[7] = test system: 80S ribosome, L11 87-90R (Saccharomyces cerevisiae? (yeast)); settings: aminoacylated (N-acetyl-Phe); Nitrocellulose filter binding, 30 C, 35 min (A-site) or 40 min (P-site), poly(U)-primed ribosomes; buffer, salt and pH not given; errors are SD

Substance	Kd [1] [nM]	Kd [2] [nM]	Kd [3] [nM]	Kd [4] [nM]	Kd [5] [nM]	Kd [6] [nM]	Kd [7] [nM]
Phe-tRNAPhe (A-site)	176	97.6	–	–	–	–	–
Ac-Phe-tRNAPhe (P-site)	–	–	41	42.8	99.2	72.3	122
